From paper doi:10.1101/2021.03.30.437644

What was measured:
[1] = biological target: T1, SLIM1 (Arabidopsis thaliana (Col-0), UniProt O23116 1-567); assay: EMSA
T1 sequence: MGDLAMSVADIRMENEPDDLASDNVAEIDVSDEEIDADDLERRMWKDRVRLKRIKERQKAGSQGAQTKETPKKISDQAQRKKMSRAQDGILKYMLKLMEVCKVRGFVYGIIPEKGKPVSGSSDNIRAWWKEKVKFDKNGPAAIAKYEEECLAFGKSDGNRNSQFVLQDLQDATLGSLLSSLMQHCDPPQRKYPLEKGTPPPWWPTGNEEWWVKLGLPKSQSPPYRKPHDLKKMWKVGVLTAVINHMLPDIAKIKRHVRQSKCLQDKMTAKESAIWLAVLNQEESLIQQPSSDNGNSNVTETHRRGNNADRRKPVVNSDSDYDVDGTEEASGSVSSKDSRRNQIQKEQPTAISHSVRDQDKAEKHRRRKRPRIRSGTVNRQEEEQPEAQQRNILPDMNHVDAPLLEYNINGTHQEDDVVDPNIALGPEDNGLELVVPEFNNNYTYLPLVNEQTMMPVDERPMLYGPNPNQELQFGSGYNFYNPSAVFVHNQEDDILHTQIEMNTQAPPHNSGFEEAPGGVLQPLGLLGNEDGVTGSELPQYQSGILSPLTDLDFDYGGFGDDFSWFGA

[2] = biological target: T2, bZIP16 (Arabidopsis thaliana (Col-0), UniProt Q501B2 1-409); assay: competition EMSA
T2 sequence: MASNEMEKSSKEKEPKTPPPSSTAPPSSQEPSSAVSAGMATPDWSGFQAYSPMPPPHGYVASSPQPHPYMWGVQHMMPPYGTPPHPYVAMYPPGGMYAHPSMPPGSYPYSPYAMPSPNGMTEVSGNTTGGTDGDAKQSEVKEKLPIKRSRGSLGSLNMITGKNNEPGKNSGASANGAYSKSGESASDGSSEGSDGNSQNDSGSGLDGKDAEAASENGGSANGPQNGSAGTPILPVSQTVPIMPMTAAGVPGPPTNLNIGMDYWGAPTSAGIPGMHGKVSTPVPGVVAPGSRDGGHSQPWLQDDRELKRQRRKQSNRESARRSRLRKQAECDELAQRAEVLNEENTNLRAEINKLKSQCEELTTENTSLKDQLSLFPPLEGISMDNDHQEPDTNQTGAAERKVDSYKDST

[3] = biological target: T3, bZIP44 (Arabidopsis thaliana (Col-0), UniProt C0Z2L5 1-173); assay: competition EMSA
[4] = biological target: T4, HYH (bZIP64) (Arabidopsis thaliana (Col-0), UniProt Q8W191 1-149); assay: competition EMSA
T4 sequence: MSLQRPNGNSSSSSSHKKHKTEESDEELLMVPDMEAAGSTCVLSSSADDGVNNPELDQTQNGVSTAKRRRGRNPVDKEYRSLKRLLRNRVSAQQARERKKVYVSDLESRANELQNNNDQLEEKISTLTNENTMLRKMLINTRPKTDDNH

[5] = biological target: T5, GBF1 (bZIP41) (Arabidopsis thaliana (Col-0), UniProt P42774 1-315); assay: EMSA
T5 sequence: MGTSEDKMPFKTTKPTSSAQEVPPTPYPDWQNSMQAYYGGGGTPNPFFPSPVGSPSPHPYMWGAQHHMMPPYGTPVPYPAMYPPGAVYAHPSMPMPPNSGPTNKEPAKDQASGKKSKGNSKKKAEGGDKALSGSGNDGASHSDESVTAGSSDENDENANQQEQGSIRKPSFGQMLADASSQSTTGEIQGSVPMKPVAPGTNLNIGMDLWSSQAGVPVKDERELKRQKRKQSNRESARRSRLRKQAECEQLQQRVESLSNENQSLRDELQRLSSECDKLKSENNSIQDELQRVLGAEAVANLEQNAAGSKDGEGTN

[6] = biological target: T2, bZIP16; assay: EMSA
[7] = biological target: T3, bZIP44; assay: EMSA
[8] = biological target: T4, HYH (bZIP64); assay: EMSA

T3 sequence (C0Z2L5 whole entry): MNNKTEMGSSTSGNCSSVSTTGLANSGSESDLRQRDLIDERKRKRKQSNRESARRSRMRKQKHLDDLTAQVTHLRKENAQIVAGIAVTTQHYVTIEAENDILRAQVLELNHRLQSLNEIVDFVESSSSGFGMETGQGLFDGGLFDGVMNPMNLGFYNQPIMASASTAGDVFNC

B1: Probe 1 (proxSDI1) (dsDNA)
DNA 1: GTGGTAAGAAGTCTCCAAGTGACGTGGCAGCTTCTATGAACAGAGACGAA
DNA 2: TTCGTCTCTGTTCATAGAAGCTGCCACGTCACTTGGAGACTTCTTACCAC
B1: binds [1].

B2: Mutated probe 4 (dsDNA)
DNA 1: GACGGATAGGGTAAAAGGCACTATTTTATA
DNA 2: TATAAAATAGTGCCTTTTACCCTATCCGTC
B2: no binding [2]; no binding [3]; no binding [4].

B3: Probe 3 (proxSDI2) (dsDNA)
DNA 1: GACCAGCCCGCGGTATTTTAGATCCAGTTGACGATAATGAACCAAGACGA
DNA 2: TCGTCTTGGTTCATTATCGTCAACTGGATCTAAAATACCGCGGGCTGGTC
B3: binds [5].

B4: Probe 2 (proxSDI2) (dsDNA)
DNA 1: GAGAGATAAAGAAGGTTTCTTCATTTAGAAACAGAGACACGAAGTTTGCG
DNA 2: CGCAAACTTCGTGTCTCTGTTTCTAAATGAAGAAACCTTCTTTATCTCTC
B4: binds [1].

B5: Probe 4 (proxSDI2) (dsDNA)
DNA 1: GACGGATAGGGTACGTGGCACTATTTTATA
DNA 2: TATAAAATAGTGCCACGTACCCTATCCGTC
B5: binds [6]; binds [7]; binds [8].
